# Results published in publication PMC10934782, “Electrochemical Sensors Based on Self-Assembling Peptide/Carbon Nanotube Nanocomposites for Sensitive Detection of Bisphenol A” (Sensors (Basel, Switzerland), 2024).
# B1: cationic amphiphilic self-assembling peptide (SAP) Z23 (peptide)
# peptide: Ac-KFKFQFKFK-NH2
# notes: Designed self-assembling peptide; forms nanofibers and a hydrogel in PBS; source: synthetic peptide; bought: Shanghai Top-peptide Biotechnology Co. Ltd. (purity > 95%)
# Target: the molecule itself
# Experiment: negative-stain TEM + turbidity + circular dichroism + rheology; Z23 alone (no MWCNTs) in PBS, assembly triggered by adding 10x PBS to the aqueous peptide solution; room temperature (rheology 1 wt% in PBS at 25 °C); turbidity at 313 nm
protein,measurement,value
B1,binding result,binds
